Our source for the IC50 (NG/ML), cytotoxic activity on A431-K5 cells values is patent US7521054.

The test concerns the target mesothelin (UniProt Q13421). The test can be described thus: cell-based or functional assay.
Chain of UniProt Q13421 (Q13421 other isoform, or with tags, fused parts or gaps limits assumed): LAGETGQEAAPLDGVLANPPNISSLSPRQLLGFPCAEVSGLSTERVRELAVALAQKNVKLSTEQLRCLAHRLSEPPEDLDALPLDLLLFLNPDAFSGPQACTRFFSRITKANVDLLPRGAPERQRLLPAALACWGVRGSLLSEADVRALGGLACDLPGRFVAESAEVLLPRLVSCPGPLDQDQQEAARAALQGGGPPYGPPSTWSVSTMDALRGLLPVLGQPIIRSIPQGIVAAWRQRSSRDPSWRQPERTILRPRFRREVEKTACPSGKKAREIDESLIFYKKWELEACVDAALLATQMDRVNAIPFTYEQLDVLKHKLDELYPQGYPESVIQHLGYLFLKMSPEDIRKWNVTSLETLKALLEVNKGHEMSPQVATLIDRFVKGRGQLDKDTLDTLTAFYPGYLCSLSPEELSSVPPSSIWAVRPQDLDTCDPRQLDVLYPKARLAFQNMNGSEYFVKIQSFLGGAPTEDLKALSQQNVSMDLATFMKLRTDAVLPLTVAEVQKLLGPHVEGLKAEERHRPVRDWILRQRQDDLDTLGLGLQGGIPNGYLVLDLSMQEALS

“SS1(dsFv)-PE38 (from UniProt P11439 278-389; P11439 406-638)”: the IC50 (NG/ML), cytotoxic activity on A431-K5 cells was found to be 0.63 ng/mL.
